T1: human FcγRIIb extracellular domain with C-terminal His-tag (human, UniProt P31994 43-217)
T1 construct: also called human FcgRIIb
T1 sequence: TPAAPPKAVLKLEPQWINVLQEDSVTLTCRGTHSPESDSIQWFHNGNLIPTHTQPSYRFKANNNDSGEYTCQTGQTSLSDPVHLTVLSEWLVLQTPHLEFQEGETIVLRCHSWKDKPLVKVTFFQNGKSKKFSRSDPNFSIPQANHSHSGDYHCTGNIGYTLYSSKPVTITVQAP


How the values were obtained:
[1] = biological target: T1, human FcγRIIb extracellular domain with …; experiment: SPR (BIACORE), antibody captured, FcgR analyte
[2] = biological target: T2, human FcγRIIIaV extracellular domain with C-terminal His-tag (human, UniProt P08637 17-208); experiment: SPR (BIACORE), antibody captured, FcgR analyte
T2 construct: also called human FcgRIIIaV
T2 sequence (P08637 17-208 F176V): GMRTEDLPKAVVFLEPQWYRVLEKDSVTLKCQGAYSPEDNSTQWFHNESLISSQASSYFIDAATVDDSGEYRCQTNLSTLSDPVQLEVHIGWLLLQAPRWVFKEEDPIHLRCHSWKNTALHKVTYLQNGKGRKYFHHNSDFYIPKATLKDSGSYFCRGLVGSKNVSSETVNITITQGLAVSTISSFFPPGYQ

Kd [1] | Kd [2] | Binder
0.5 µM | 14 µM | M103205H795-MY209/M103202L889-SK1 (antibody, human IgG1, kappa, Substitutions introduced into M103205H795-SG1, expressed with M103202L889-SK1 as light chain; EU numbering) heavy: QVTLKESGPVLVKPTETLTLTCTVSGIDLSHDDISWVRQAPGKGLEWVGIISYAGSTYYASWAKGRLTISKDTSKNQVVLTMTNMDPVDTATYYCARGVPAYSHGGDLWGQGTLVTVSSASTKGPSVFPLAPSSKSTSGGTAALGCLVKDYFPEPVTVSWNSGALTSGVHTFPAVLQSSGLYSLSSVVTVPSSSLGTQTYICNVNHKPSNTKVDKKVEPKSCDKTHTCPPCPAPELLNGPSVFLFPPKPKDTLMISRTPEVTCVVVDVSDEDPEVKFNWYVDGVEVHNAKTKPREELYNSTYRVVSVLTVLHQDWLNGKEYKCKVSNTALPKPIEKTISKAKGQPREPQVYTLPPSREEMTKNQVSLTCLVKGFYPSDIAVEWESNGQPENNYKTTPPVLDSDGSFFLYSKLTVDKSRWQQGNVFSCSVMHEALHNHYTQKSLSLSP light: DIVMTQSPATLSLSPGERATLSCTSSQSVYHANWLSWFQQKPGQPPKLLIYWASTLAYGVPSRFSGSGSGTDFTLTISSLQPEDAATYYCAGGYGGGRYAFGQGTKVEIKRTVAAPSVFIFPPSDEQLKSGTASVVCLLNNFYPREAKVQWKVDNALQSGNSQESVTEQDSKDSTYSLSSTLTLSKADYEKHKVYACEVTHQGLSSPVTKSFNRGEC
1.8 µM | 5.7 µM | M103205H795-MY283/M103202L889-SK1 (antibody, human IgG1, kappa, Substitutions introduced into M103205H795-SG1, expressed with M103202L889-SK1 as light chain; EU numbering) heavy: QVTLKESGPVLVKPTETLTLTCTVSGIDLSHDDISWVRQAPGKGLEWVGIISYAGSTYYASWAKGRLTISKDTSKNQVVLTMTNMDPVDTATYYCARGVPAYSHGGDLWGQGTLVTVSSASTKGPSVFPLAPSSKSTSGGTAALGCLVKDYFPEPVTVSWNSGALTSGVHTFPAVLQSSGLYSLSSVVTVPSSSLGTQTYICNVNHKPSNTKVDKKVEPKSCDKTHTCPPCPAPELLTGPSVFLFPPKPKDTLMISRTPEVTCVVVDVSDEDPEVKFNWYVDGVEVHNAKTKPREELYNSTYRVVSVLTVLHQDWLNGKEYKCKVSNKALPKPIEKTISKAKGQPREPQVYTLPPSREEMTKNQVSLTCLVKGFYPSDIAVEWESNGQPENNYKTTPPVLDSDGSFFLYSKLTVDKSRWQQGNVFSCSVMHEALHNHYTQKSLSLSP light: DIVMTQSPATLSLSPGERATLSCTSSQSVYHANWLSWFQQKPGQPPKLLIYWASTLAYGVPSRFSGSGSGTDFTLTISSLQPEDAATYYCAGGYGGGRYAFGQGTKVEIKRTVAAPSVFIFPPSDEQLKSGTASVVCLLNNFYPREAKVQWKVDNALQSGNSQESVTEQDSKDSTYSLSSTLTLSKADYEKHKVYACEVTHQGLSSPVTKSFNRGEC
2.8 µM | 5.6 µM | M103205H795-MY339/M103202L889-SK1 (antibody, human IgG1, kappa, Substitutions introduced into M103205H795-SG1, expressed with M103202L889-SK1 as light chain; EU numbering) heavy: QVTLKESGPVLVKPTETLTLTCTVSGIDLSHDDISWVRQAPGKGLEWVGIISYAGSTYYASWAKGRLTISKDTSKNQVVLTMTNMDPVDTATYYCARGVPAYSHGGDLWGQGTLVTVSSASTKGPSVFPLAPSSKSTSGGTAALGCLVKDYFPEPVTVSWNSGALTSGVHTFPAVLQSSGLYSLSSVVTVPSSSLGTQTYICNVNHKPSNTKVDKKVEPKSCDKTHTCPPCPAPELLLGPSVFLFPPKPKDTLMISRTPEVTCVVVDVSDEDPEVKFNWYVDGVEVHNAKTKPREEQYNSTYRVVSVLTVLHQDWLNGKEYKCKVSNTALPKPIEKTISKAKGQPREPQVYTLPPSREEMTKNQVSLTCLVKGFYPSDIAVEWESNGQPENNYKTTPKVLDSDGSFFLYSKLTVDKSRWQQGNVFSCSVMHEALHNHYTQKSLSLSP light: DIVMTQSPATLSLSPGERATLSCTSSQSVYHANWLSWFQQKPGQPPKLLIYWASTLAYGVPSRFSGSGSGTDFTLTISSLQPEDAATYYCAGGYGGGRYAFGQGTKVEIKRTVAAPSVFIFPPSDEQLKSGTASVVCLLNNFYPREAKVQWKVDNALQSGNSQESVTEQDSKDSTYSLSSTLTLSKADYEKHKVYACEVTHQGLSSPVTKSFNRGEC
